In the nanobody polyreactivity screen of Harvey et al. (2022):

assay: yeast display, Sf9 membrane polyspecificity reagent, FACS + sequencing; frameworks hold sequencing errors
In short: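 In a synthetic yeast display library (Saccharomyces cerevisiae BJ5465), nanobody expression was induced with galactose for 36–48 hours. FACS gates were set low and high (top ~1%) using anti-HA fluorescence for expression and streptavidin fluorescence for binding of the Sf9 membrane reagent. Each polyreactivity label is drawn from the gate of origin.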

Q: For “QVQLVESGGGLDQAGRSLRLSCAASGSTFPYTAMGWYRQAPGKYRELVAGITDGDGSTSYADSVKGRFTISRDNAKNTVYLQMNCMKPELPAVYYCAARYTYYADEDDYWGQGSQVTVSS”, which “polyreactivity (PSR sort gate)” value is on record?
A: low polyreactivity

Q: For “QVQLVESGGGLDQARGSLRLSCAASGITFHPNAMGWYRQAPGKERELVAAISGRRSRTYYADSVKGRFIISRDNAKNTVYLLLNSLKPEDTAVYYCAKDHPSGRQYDYWGQGTQVTVSS”, which “polyreactivity (PSR sort gate)” value is on record?
A: high polyreactivity

Q: With “QVQLVESGGGLDQARGSLRLSCAASGRTFYSYAMGWYRQAPGKERELVAAISKRGTSTYYADSVKGRFTISRDNAKNTVYLQMNSLKPEDTAVYYCDAGAYIWDIYSYRWYDYWGQGTQVTVSS” as the sequence, how does the “polyreactivity (PSR sort gate)” value read?
A: high polyreactivity

Q: For “QVQLVESGGGLDQARGSLRLSCAASGSNFRYYAIGGYRPAHGKERELVASITGSGGRTYYADSVKGRFTISLDNAKNTVYLQMNSLKPEDTAVYYCAVPYHQGNMDYWGQGTQVTVSS”, which “polyreactivity (PSR sort gate)” value is on record?
A: high polyreactivity

Q: With “QVQLVESGGGLDQARGSLRLSCAASGSTFAFYAMGWYRQAPGKERELVAAITGDGDSTYYADSVKGRFTISRDNAKNTVYLQMNSLKPEDTAVYYCAKSSGGGPSSFDYWGQGTQVTVSS” as the sequence, how does the “polyreactivity (PSR sort gate)” value read?
A: low polyreactivity

Q: Which “polyreactivity (PSR sort gate)” value does the source give for “QVQLVESGGGLDQARGSLRLSCAASGYTFYRNAMGWYRQAPGKVRELVAAIRDDGSTYYADSVKGRFTISRDNAKNTVYLHMNSLKPADTAVYYCNRDYPYIWHKGARYWHDNDYWGQGTQVTVSS” here?
A: low polyreactivity

Q: Which “polyreactivity (PSR sort gate)” value does the source give for “QVQLVESGGGLDQEGGSLRLSCAASGNIFSSYLMGWYRQAPGKEREVVAAISSRGGSTYYADSVKGRFTISRDNAKNSVYLQMNSLKPEDTAVYYCAARTGRYYRRYDYWGQGTQVTLSS” here?
A: high polyreactivity

Q: Which “polyreactivity (PSR sort gate)” value does the source give for “QVQLVESGGGLFHAGGRLRLSCAASGYTFRYYAMGWSRQAPGKERELVAGIDSGGGSTYYAASVKGRFTISRDNAKYTVYLQMNSLKPEDTAVYYCAVDTYSWYGEYYYWGQGTQVTVSS” here?
A: high polyreactivity

Q: Which “polyreactivity (PSR sort gate)” value does the source give for “QVQLVESGGGLFKAGGSLRLSCAASGFIFYFYNMAWYRQAPGKERELVAAISKSGTSTYYAASVKGRFTISRDNAKNTVYLQMNSLKPEDPAVYYCNKVRRANFDYWGQGTQVTVSS” here?
A: high polyreactivity

Q: Which “polyreactivity (PSR sort gate)” value does the source give for “QVQLVESGGGLFQAGASLRLSCAASGFIFTDYAIGWDTQAPGKERELVAAISSGGRTYYADSVKGRFTISRDNAKNTVYLQMNSLKPEDTAVYYCARGGRAEGWGQGTQVTVSS” here?
A: high polyreactivity

Q: Which “polyreactivity (PSR sort gate)” value does the source give for “QVQLVESGGGLFQAGGRLLLSCAASGRIFTYNTRGWYRQAPGKEREFVAAISSSSVSTYYADSVKGRITISRDNAKYTVYLQMNCLKPEDTAVYYCAAKRVGYHIGYVYPYGYWGQGTQVTVSS” here?
A: high polyreactivity

Q: Which “polyreactivity (PSR sort gate)” value does the source give for “QVQLVESGGGLFQAGGSLRISCAASGITFYGNAMGWYRQAPGKERELDATISSGGGTNYADSVKGRFTISRDNAKNTVYLQMNSLKPEDTAVYYCATDLSTVDYNYWGQGTQVTVSS” here?
A: low polyreactivity

Q: With “QVQLVESGGGLFQAGGSLRISCAATGSTFGSYAMGWYRQAPGKERELVAAISVGGGSTYYADSVKGRFTISRDNAKNTVYLKMNSLKPEDTAVFYCAATAPRWHHFYHWGQGTQVTVSS” as the sequence, how does the “polyreactivity (PSR sort gate)” value read?
A: high polyreactivity

Q: Which “polyreactivity (PSR sort gate)” value does the source give for “QVQLVESGGGLFQAGGSLRLICAASGRIFDVNAMGWYRQAPRKEREMVAAISWSGGITYYADSVKGRFTISRDNAKNTVYLQMNSLKPEDTAVYYCAADKYQGYTFYQGYPGGGGYWGQGTQVTVSS” here?
A: low polyreactivity

Q: With “QVQLVESGGGLFQAGGSLRLSCAASASIIPHNAMGWYRQAPGKERELVASITSRGGITYYADSVKGRFTISRDNAKNTVYLQMNSLKPEDTAVYYCAKDHAYTSAPHQYASEYYYWGQGTQVTVSS” as the sequence, how does the “polyreactivity (PSR sort gate)” value read?
A: low polyreactivity

Q: For “QVQLVESGGGLFQAGGSLRLSCAASGFIFARNAMSWYRQAPGKERELVAAISRNGGRTSYADSVKGRFTISRDNAKNTVYLQMNSMKAEDTAVYYCAKSQGYVSWTGAYSYDYWGQGTQVTVSS”, which “polyreactivity (PSR sort gate)” value is on record?
A: high polyreactivity

Q: With “QVQLVESGGGLFQAGGSLRLSCAASGFIFLLNAMGWYRQAPGKERELVAAINSDGSTNYADSVKGRFTISRDNAKNTFYLQMNSLKPEDTGVYYCAARSFTLRGYDYWGQGTQVTVSS” as the sequence, how does the “polyreactivity (PSR sort gate)” value read?
A: low polyreactivity

Q: For “QVQLVESGGGLFQAGGSLRLSCAASGFNFDSNVMGWYRQAPGKERELVAAITGDDTTYYADSVKGRFTISRDNAKNTVYLQMNSLKPEDTAVYYCAADETESLEYTAYDMYYWGQGTQVTVSS”, which “polyreactivity (PSR sort gate)” value is on record?
A: low polyreactivity

Q: Which “polyreactivity (PSR sort gate)” value does the source give for “QVQLVESGGGLFQAGGSLRLSCAASGFSFYGNTMGWYRQAPGKERELFASITSGSSTHYADSVKGRFTISRDNAKNTVYLQMNSLKPDDTAVYYCNVEDIQFGKYDYWGQGTQVTVSS” here?
A: low polyreactivity

Q: With “QVQLVESGGGLFQAGGSLRLSCAASGFTFAFNAMGWYRQAPGKERELVAGITSGGRTNYADSVKGRFTISRDNGKNTVYLQMNSLKPEDTAVYYCAADRPYYKGYVPPYYKYRYDYWGQGTQVTVSS” as the sequence, how does the “polyreactivity (PSR sort gate)” value read?
A: high polyreactivity

Q: For “QVQLVESGGGLFQAGGSLRLSCAASGFTFARYAMGRSRTAPAKERELVARISWSGGSTYYADSVKGRFTISRDNAKNTVYLLMYSLKTEDTEVYYCAADGWYYRYPRDDYWGQGTQETVSS”, which “polyreactivity (PSR sort gate)” value is on record?
A: low polyreactivity

Q: Which “polyreactivity (PSR sort gate)” value does the source give for “QVQLVESGGGLFQAGGSLRLSCAASGFTFGHNSMGWYRQAPGKERELVAAISYSGGSTYYADSVKGRFTSSRDNAKNTVYLQMNSLKPEDTAVYYCAKRSHTDSVPGVYNEGDFWGQGTQVTVSS” here?
A: low polyreactivity

Q: For “QVQLVESGGGLFQAGGSLRLSCAASGFTFHRNAMGWYRQAPGKERELVAAITLNGGSSTYYADSVKGRFTISRDNAKNTVYLQMNSLKAEDTAVYSCALDSYSYTFSKNSDPAEYEYWGQGTQVTVSS”, which “polyreactivity (PSR sort gate)” value is on record?
A: low polyreactivity

Q: For “QVQLVESGGGLFQAGGSLRLSCAASGFTFIPYTMGWYRQAPGKERELVASIISGGSTNYADSVKGRFTISRDNAKNTVYFQMKSLKPEDTAVYYCAAVYFYYCYGWYYYWGQGTQVTVSS”, which “polyreactivity (PSR sort gate)” value is on record?
A: high polyreactivity

Q: Which “polyreactivity (PSR sort gate)” value does the source give for “QVQLVESGGGLFQAGGSLRLSCAASGFTFNRNAMGWYRQAPGKERELVAAISWSGGSTYYADSVKGRFTISRDNAKNPVYLQMNSLKPEDTAVYYCAKGYRRVYGPFYYWGQGTQVTVSS” here?
A: low polyreactivity

Q: With “QVQLVESGGGLFQAGGSLRLSCAASGFTFPDYAMGSYRQAPGKERELVAAISSDGSTYDADSVKGRFTISRDIAKTTVYLQMNSLKPEDTAVYYCAAYVVWLYGYAYWGQGTQVTVSS” as the sequence, how does the “polyreactivity (PSR sort gate)” value read?
A: low polyreactivity

Q: For “QVQLVESGGGLFQAGGSLRLSCAASGFTFWYYAMGWYRQAPGKERELVAAISASGGSTYYADSVKVRFTISRDNAKNTVYLQMNCLKPEDTAVYYCAARYPSKFYNTYDRDYWGQGTQVTVSS”, which “polyreactivity (PSR sort gate)” value is on record?
A: high polyreactivity

Q: With “QVQLVESGGGLFQAGGSLRLSCAASGFTFYRNAMGWYRQAPGQERELVAAITRGGSTTYADSVKGRFTISRDNAKNTVYLQMNSLKPEDTAVYYCAKGARADVPGYYKYYYWGQGTQVTVSS” as the sequence, how does the “polyreactivity (PSR sort gate)” value read?
A: high polyreactivity

Q: Which “polyreactivity (PSR sort gate)” value does the source give for “QVQLVESGGGLFQAGGSLRLSCAASGGIFSLYAMGWYRQAPGTERELVAVISSTCSTHYADSVKGRFTISRDNAKKTVSLLMNSLKPEDTAVYYCNADARTSRKKFGYWGQGTQVTVSS” here?
A: low polyreactivity

Q: Which “polyreactivity (PSR sort gate)” value does the source give for “QVQLVESGGGLFQAGGSLRLSCAASGGTFDWYTMGWYRQAPGKERELVADITSGGSTYYADSVKGRFTISRDNAKNTVYLQMNSLKPEDTALYYCNKRDKVTYSYDYWGQGTQVTVSS” here?
A: high polyreactivity

Q: Which “polyreactivity (PSR sort gate)” value does the source give for “QVQLVESGGGLFQAGGSLRLSCAASGIIFSSNAMGWSRQAPGKERELVAAISSSGSRTYYAASVKGRFTISRDNAKNTVYFQMNSLKPEDTAVYYCAARTISSLNHHGYWGQGTQVTVSS” here?
A: high polyreactivity

Q: Which “polyreactivity (PSR sort gate)” value does the source give for “QVQLVESGGGLFQAGGSLRLSCAASGINFYKYSMGWYRQAHRKERELVAAITSGGGRTYYADSVKGRFTISRDNAKNTVYLQMNSLKPEDTAVYYCAATRPASYAAYDYWGQGTQVTVSS” here?
A: high polyreactivity

Q: With “QVQLVESGGGLFQAGGSLRLSCAASGLIFGRYAMGWYRPAPGKERELVAAISRSGGSTHYADSVKGRFTISRDNAKNTVYLQMNSLKPEDTAVYYCAAVWPFDRSRMDYWGQGTQVTVSS” as the sequence, how does the “polyreactivity (PSR sort gate)” value read?
A: high polyreactivity

Q: With “QVQLVESGGGLFQAGGSLRLSCAASGLTFQRYDMGWYRQAPVKEIELVAAINYSGGRTYYADSVKGRFTISRDNAKNTVYLQMNSLKPEDTAVYYCAARVRNTYVYQSWDGMYYWGQGTQVTVSS” as the sequence, how does the “polyreactivity (PSR sort gate)” value read?
A: high polyreactivity

Q: Which “polyreactivity (PSR sort gate)” value does the source give for “QVQLVESGGGLFQAGGSLRLSCAASGLTLYFYVMGWYRQAPGKERELVAAISSTGSTYYADSVKGRFTISRDNAKNTVYLQMNSLKPEDTAVYYCAARYGGHYGAEYYWGQGSQVTVSS” here?
A: high polyreactivity

Q: Which “polyreactivity (PSR sort gate)” value does the source give for “QVQLVESGGGLFQAGGSLRLSCAASGRIFGAYTMGWYRQAPGKERELVAAISDGGDTYYADSVKGRFTISRDNAKNTVYLQMNSLKPEDTAVYYCAADAPYYAYYWYPSSLGIYGYWGQGTQVTVSS” here?
A: low polyreactivity

Q: Which “polyreactivity (PSR sort gate)” value does the source give for “QVQLVESGGGLFQAGGSLRLSCAASGRIFGPYAMGWYRQAPGKERELVATITLRGGSTYYADSVKGRFTISRDNAKNTVYLQMNSLKPEDTAVYYCNARYYSLVYRYDYWGQGTQVTVSS” here?
A: high polyreactivity

Q: With “QVQLVESGGGLFQAGGSLRLSCAASGRIFQHNTMGWYRQAPGKEREFVAAIRRSGGSTYYADSVKGRFTISRDNAKNTVYLQMNSLKPEDTAVFYCAARDYPTGTRRWGGGDSWGQGTQVTVSS” as the sequence, how does the “polyreactivity (PSR sort gate)” value read?
A: low polyreactivity

Q: With “QVQLVESGGGLFQAGGSLRLSCAASGRIFSCYAMGWYRQAPGKERELVAAITVRGSTYYADSVKGSFTISRDNAKNTVYLQMNSLKPEDTAVYYCAAGGYPGTTYYGYDFWGQVTQVTVSS” as the sequence, how does the “polyreactivity (PSR sort gate)” value read?
A: low polyreactivity

Q: Which “polyreactivity (PSR sort gate)” value does the source give for “QVQLVESGGGLFQAGGSLRLSCAASGRIFYTNVMGWYRPAPGKERELVAAISTGGGRTYYADSVKGRFTISRDYAKNTVYLQMNSLKPEDTAVYYCAADWRTKGYDSLGQGTQVTVSS” here?
A: high polyreactivity

Q: For “QVQLVESGGGLFQAGGSLRLSCAASGRTFHGYAMGWYRQAPGKERELVARINWSDGRTYYADSVKGRFTISRDNAKNTVYLQMNSLKPEDTAVYYCAADKTVSYAPAWYYYWGQGTQVTVSS”, which “polyreactivity (PSR sort gate)” value is on record?
A: low polyreactivity

Q: With “QVQLVESGGGLFQAGGSLRLSCAASGRTFKPNTMGWYRQAPGKERELVAAITWRGGSTYYADSVKGRFTISRDNAKNTVYLQMNSLKPEDTAVYYCASARVRTGTGMDYWGQVTQVTVSS” as the sequence, how does the “polyreactivity (PSR sort gate)” value read?
A: low polyreactivity

Q: For “QVQLVESGGGLFQAGGSLRLSCAASGSIFDVNAMGWYRQAPGKEREFVAAISDSGGSTYYADSVKGRFTMSRDNAKNTVSLPMNSLKPEDTAVYYCNADWSWYNYYDFDYWGQGTQVTVSS”, which “polyreactivity (PSR sort gate)” value is on record?
A: low polyreactivity
